Assay results: publication PMC4912689, “The Extracellular Surface of the GLP-1 Receptor Is a Molecular Trigger for Biased Agonism” (Cell, 2016)

B1: glucagon-like peptide 1 receptor (GLP-1R), wild-type, P43220 E292A (protein)
chain: RPQGATVSLWETVQKWREYRRQCQRSLTEDPPPATDLFCNRTFDEYACWPDGEPGSFVNVSCPWYLPWASSVPQGHVYRFCTAEGLWLQKDNSSLPWRDLSECEESKRGERSSPEEQLLFLYIIYTVGYALSFSALVIASAILLGFRHLHCTRNYIHLNLFASFILRALSVFIKDAALKWMYSTAAQQHQWDGLLSYQDSLSCRLVFLLMQYCVAANYYWLLVEGVYLYTLLAFSVLSEQWIFRLYVSIGWGVPLLFVVPWGIVKYLYADEGCWTRNSNMNYWLIIRLPILFAIGVNFLIFVRVICIVVSKLKANLMCKTDIKCRLAKSTLTLIPLLGTHEVIFAFVMDEHARGTLRFIKLFTELSFTSFQGLMVAILYCFVNNEVQLEFRKSWERWRLEHLHIQRDSSMKPLKCPTSSLSSGATAGSSMYTATCQASCS
B2: glucagon-like peptide 1 receptor (GLP-1R), wild-type, P43220 D222A (protein)
chain: RPQGATVSLWETVQKWREYRRQCQRSLTEDPPPATDLFCNRTFDEYACWPDGEPGSFVNVSCPWYLPWASSVPQGHVYRFCTAEGLWLQKDNSSLPWRDLSECEESKRGERSSPEEQLLFLYIIYTVGYALSFSALVIASAILLGFRHLHCTRNYIHLNLFASFILRALSVFIKDAALKWMYSTAAQQHQWDGLLSYQASLSCRLVFLLMQYCVAANYYWLLVEGVYLYTLLAFSVLSEQWIFRLYVSIGWGVPLLFVVPWGIVKYLYEDEGCWTRNSNMNYWLIIRLPILFAIGVNFLIFVRVICIVVSKLKANLMCKTDIKCRLAKSTLTLIPLLGTHEVIFAFVMDEHARGTLRFIKLFTELSFTSFQGLMVAILYCFVNNEVQLEFRKSWERWRLEHLHIQRDSSMKPLKCPTSSLSSGATAGSSMYTATCQASCS
B3: glucagon-like peptide 1 receptor (GLP-1R), wild-type, P43220 L201A (protein)
chain: RPQGATVSLWETVQKWREYRRQCQRSLTEDPPPATDLFCNRTFDEYACWPDGEPGSFVNVSCPWYLPWASSVPQGHVYRFCTAEGLWLQKDNSSLPWRDLSECEESKRGERSSPEEQLLFLYIIYTVGYALSFSALVIASAILLGFRHLHCTRNYIHLNLFASFILRALSVFIKDAAAKWMYSTAAQQHQWDGLLSYQDSLSCRLVFLLMQYCVAANYYWLLVEGVYLYTLLAFSVLSEQWIFRLYVSIGWGVPLLFVVPWGIVKYLYEDEGCWTRNSNMNYWLIIRLPILFAIGVNFLIFVRVICIVVSKLKANLMCKTDIKCRLAKSTLTLIPLLGTHEVIFAFVMDEHARGTLRFIKLFTELSFTSFQGLMVAILYCFVNNEVQLEFRKSWERWRLEHLHIQRDSSMKPLKCPTSSLSSGATAGSSMYTATCQASCS
B4: glucagon-like peptide 1 receptor (GLP-1R), wild-type, P43220 Q213A (protein)
chain: RPQGATVSLWETVQKWREYRRQCQRSLTEDPPPATDLFCNRTFDEYACWPDGEPGSFVNVSCPWYLPWASSVPQGHVYRFCTAEGLWLQKDNSSLPWRDLSECEESKRGERSSPEEQLLFLYIIYTVGYALSFSALVIASAILLGFRHLHCTRNYIHLNLFASFILRALSVFIKDAALKWMYSTAAQQHAWDGLLSYQDSLSCRLVFLLMQYCVAANYYWLLVEGVYLYTLLAFSVLSEQWIFRLYVSIGWGVPLLFVVPWGIVKYLYEDEGCWTRNSNMNYWLIIRLPILFAIGVNFLIFVRVICIVVSKLKANLMCKTDIKCRLAKSTLTLIPLLGTHEVIFAFVMDEHARGTLRFIKLFTELSFTSFQGLMVAILYCFVNNEVQLEFRKSWERWRLEHLHIQRDSSMKPLKCPTSSLSSGATAGSSMYTATCQASCS
B5: glucagon-like peptide 1 receptor (GLP-1R), wild-type, P43220 E387A (protein)
chain: RPQGATVSLWETVQKWREYRRQCQRSLTEDPPPATDLFCNRTFDEYACWPDGEPGSFVNVSCPWYLPWASSVPQGHVYRFCTAEGLWLQKDNSSLPWRDLSECEESKRGERSSPEEQLLFLYIIYTVGYALSFSALVIASAILLGFRHLHCTRNYIHLNLFASFILRALSVFIKDAALKWMYSTAAQQHQWDGLLSYQDSLSCRLVFLLMQYCVAANYYWLLVEGVYLYTLLAFSVLSEQWIFRLYVSIGWGVPLLFVVPWGIVKYLYEDEGCWTRNSNMNYWLIIRLPILFAIGVNFLIFVRVICIVVSKLKANLMCKTDIKCRLAKSTLTLIPLLGTHEVIFAFVMDEHARGTLRFIKLFTALSFTSFQGLMVAILYCFVNNEVQLEFRKSWERWRLEHLHIQRDSSMKPLKCPTSSLSSGATAGSSMYTATCQASCS
B6: glucagon-like peptide 1 receptor (GLP-1R), wild-type, P43220 S223A (protein)
chain: RPQGATVSLWETVQKWREYRRQCQRSLTEDPPPATDLFCNRTFDEYACWPDGEPGSFVNVSCPWYLPWASSVPQGHVYRFCTAEGLWLQKDNSSLPWRDLSECEESKRGERSSPEEQLLFLYIIYTVGYALSFSALVIASAILLGFRHLHCTRNYIHLNLFASFILRALSVFIKDAALKWMYSTAAQQHQWDGLLSYQDALSCRLVFLLMQYCVAANYYWLLVEGVYLYTLLAFSVLSEQWIFRLYVSIGWGVPLLFVVPWGIVKYLYEDEGCWTRNSNMNYWLIIRLPILFAIGVNFLIFVRVICIVVSKLKANLMCKTDIKCRLAKSTLTLIPLLGTHEVIFAFVMDEHARGTLRFIKLFTELSFTSFQGLMVAILYCFVNNEVQLEFRKSWERWRLEHLHIQRDSSMKPLKCPTSSLSSGATAGSSMYTATCQASCS
B7: glucagon-like peptide 1 receptor (GLP-1R), wild-type, P43220 Y220A (protein)
chain: RPQGATVSLWETVQKWREYRRQCQRSLTEDPPPATDLFCNRTFDEYACWPDGEPGSFVNVSCPWYLPWASSVPQGHVYRFCTAEGLWLQKDNSSLPWRDLSECEESKRGERSSPEEQLLFLYIIYTVGYALSFSALVIASAILLGFRHLHCTRNYIHLNLFASFILRALSVFIKDAALKWMYSTAAQQHQWDGLLSAQDSLSCRLVFLLMQYCVAANYYWLLVEGVYLYTLLAFSVLSEQWIFRLYVSIGWGVPLLFVVPWGIVKYLYEDEGCWTRNSNMNYWLIIRLPILFAIGVNFLIFVRVICIVVSKLKANLMCKTDIKCRLAKSTLTLIPLLGTHEVIFAFVMDEHARGTLRFIKLFTELSFTSFQGLMVAILYCFVNNEVQLEFRKSWERWRLEHLHIQRDSSMKPLKCPTSSLSSGATAGSSMYTATCQASCS
B8: glucagon-like peptide 1 receptor (GLP-1R), wild-type, P43220 G295A (protein)
chain: RPQGATVSLWETVQKWREYRRQCQRSLTEDPPPATDLFCNRTFDEYACWPDGEPGSFVNVSCPWYLPWASSVPQGHVYRFCTAEGLWLQKDNSSLPWRDLSECEESKRGERSSPEEQLLFLYIIYTVGYALSFSALVIASAILLGFRHLHCTRNYIHLNLFASFILRALSVFIKDAALKWMYSTAAQQHQWDGLLSYQDSLSCRLVFLLMQYCVAANYYWLLVEGVYLYTLLAFSVLSEQWIFRLYVSIGWGVPLLFVVPWGIVKYLYEDEACWTRNSNMNYWLIIRLPILFAIGVNFLIFVRVICIVVSKLKANLMCKTDIKCRLAKSTLTLIPLLGTHEVIFAFVMDEHARGTLRFIKLFTELSFTSFQGLMVAILYCFVNNEVQLEFRKSWERWRLEHLHIQRDSSMKPLKCPTSSLSSGATAGSSMYTATCQASCS
B9: glucagon-like peptide 1 receptor (GLP-1R), wild-type, P43220 N300A (protein)
chain: RPQGATVSLWETVQKWREYRRQCQRSLTEDPPPATDLFCNRTFDEYACWPDGEPGSFVNVSCPWYLPWASSVPQGHVYRFCTAEGLWLQKDNSSLPWRDLSECEESKRGERSSPEEQLLFLYIIYTVGYALSFSALVIASAILLGFRHLHCTRNYIHLNLFASFILRALSVFIKDAALKWMYSTAAQQHQWDGLLSYQDSLSCRLVFLLMQYCVAANYYWLLVEGVYLYTLLAFSVLSEQWIFRLYVSIGWGVPLLFVVPWGIVKYLYEDEGCWTRASNMNYWLIIRLPILFAIGVNFLIFVRVICIVVSKLKANLMCKTDIKCRLAKSTLTLIPLLGTHEVIFAFVMDEHARGTLRFIKLFTELSFTSFQGLMVAILYCFVNNEVQLEFRKSWERWRLEHLHIQRDSSMKPLKCPTSSLSSGATAGSSMYTATCQASCS

These binders were tested against exendin-4, P26349 (assay: radioligand inhibition binding (competition with 125I-exendin-4(9-39))). Details: chain shown with the change;; read off a plot.

In order of rising log10 ratio:
1. B1  -1.8 ΔpKi
2. B9  -1.8 ΔpKi
3. B5  -0.4 ΔpKi
4. B6  -0.4 ΔpKi
5. B3  -0.3 ΔpKi
6. B2  -0.25 ΔpKi
7. B4  -0.15 ΔpKi
8. B8  -0.1 ΔpKi
9. B7  0.1 ΔpKi
